Data as given in patent US20170152307A1.
Values belong to the substance of their own block, whether it stands above or below them.

Key:
tau 194-212 (human) = experiment: peptide ELISA
[1] = target: ptau 194-212 (pS202, pT205) (human); experiment: peptide ELISA, 1 ug/mL IgG
[2] = target: ptau 194-212 (pS202, pT205) (human); experiment: peptide ELISA, biotinylated peptide on streptavidin plate, IgG titrated (Example 6)
ptau 188-205 (human) = experiment: peptide ELISA
ptau 188-206 (human) = experiment: peptide ELISA
ptau 189-206 (human) = experiment: peptide ELISA
ptau 189-209 (human) = experiment: peptide ELISA
ptau 192-209 (human) = experiment: peptide ELISA
ptau 192-215 (human) = experiment: peptide ELISA
ptau 192-217 (human) = experiment: peptide ELISA
tau 186-253 (human) = experiment: peptide ELISA
Sequence of tau 186-253 (human) (peptide, as listed by the source limits assumed): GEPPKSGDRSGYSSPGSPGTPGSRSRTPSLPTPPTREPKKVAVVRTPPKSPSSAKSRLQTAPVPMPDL

tau 190-209 (human) = experiment: peptide ELISA
[3] = target: ptau 187-212 (pY197, pT205; as printed in Table 11) (human); experiment: peptide ELISA, 2 ug/mL IgG
ptau 188-209 (human) = experiment: peptide ELISA, 2 ug/mL IgG
ptau 188-212 (human) = experiment: peptide ELISA, 2 ug/mL IgG
ptau 189-212 (human) = experiment: peptide ELISA, 2 ug/mL IgG
ptau 192-212 (human) = experiment: peptide ELISA, 2 ug/mL IgG
[4] = target: ptau 194-212 (pS202, pT205) (human); experiment: peptide ELISA, 2 ug/mL IgG
[5] = target: ptau 187-212 (A187) (human); experiment: alanine-scan peptide ELISA, 1 ug/mL IgG
[6] = target: ptau 187-212 (A188) (human); experiment: alanine-scan peptide ELISA, 1 ug/mL IgG
[7] = target: ptau 187-212 (A189) (human); experiment: alanine-scan peptide ELISA, 1 ug/mL IgG
[8] = target: ptau 187-212 (A190) (human); experiment: alanine-scan peptide ELISA, 1 ug/mL IgG
[9] = target: ptau 187-212 (A191) (human); experiment: alanine-scan peptide ELISA, 1 ug/mL IgG
[10] = target: ptau 187-212 (A192) (human); experiment: alanine-scan peptide ELISA, 1 ug/mL IgG
[11] = target: ptau 187-212 (A193) (human); experiment: alanine-scan peptide ELISA, 1 ug/mL IgG
[12] = target: ptau 187-212 (A194) (human); experiment: alanine-scan peptide ELISA, 1 ug/mL IgG
[13] = target: ptau 187-212 (A195) (human); experiment: alanine-scan peptide ELISA, 1 ug/mL IgG
[14] = target: ptau 187-212 (A196) (human); experiment: alanine-scan peptide ELISA, 1 ug/mL IgG
[15] = target: ptau 187-212 (A197) (human); experiment: alanine-scan peptide ELISA, 1 ug/mL IgG
[16] = target: ptau 187-212 (A198) (human); experiment: alanine-scan peptide ELISA, 1 ug/mL IgG
[17] = target: ptau 187-212 (A199) (human); experiment: alanine-scan peptide ELISA, 1 ug/mL IgG
[18] = target: ptau 187-212 (A200) (human); experiment: alanine-scan peptide ELISA, 1 ug/mL IgG
[19] = target: ptau 187-212 (A201) (human); experiment: alanine-scan peptide ELISA, 1 ug/mL IgG
[20] = target: ptau 187-212 (A202) (human); experiment: alanine-scan peptide ELISA, 1 ug/mL IgG
[21] = target: ptau 187-212 (A203) (human); experiment: alanine-scan peptide ELISA, 1 ug/mL IgG
[22] = target: ptau 187-212 (A204) (human); experiment: alanine-scan peptide ELISA, 1 ug/mL IgG
[23] = target: ptau 187-212 (A205) (human); experiment: alanine-scan peptide ELISA, 1 ug/mL IgG
[24] = target: ptau 187-212 (A206) (human); experiment: alanine-scan peptide ELISA, 1 ug/mL IgG
[25] = target: ptau 187-212 (A207) (human); experiment: alanine-scan peptide ELISA, 1 ug/mL IgG
[26] = target: ptau 187-212 (A208) (human); experiment: alanine-scan peptide ELISA, 1 ug/mL IgG
[27] = target: ptau 187-212 (A209) (human); experiment: alanine-scan peptide ELISA, 1 ug/mL IgG
[28] = target: ptau 187-212 (A210) (human); experiment: alanine-scan peptide ELISA, 1 ug/mL IgG
[29] = target: ptau 187-212 (A211) (human); experiment: alanine-scan peptide ELISA, 1 ug/mL IgG
[30] = target: ptau 187-212 (A212) (human); experiment: alanine-scan peptide ELISA, 1 ug/mL IgG
[31] = target: ptau 187-212 (pS202, pT205; as printed in Table 22) (human); experiment: alanine-scan peptide ELISA, 1 ug/mL IgG

Sequence of CBTAU-7.1 (antibody) (VH): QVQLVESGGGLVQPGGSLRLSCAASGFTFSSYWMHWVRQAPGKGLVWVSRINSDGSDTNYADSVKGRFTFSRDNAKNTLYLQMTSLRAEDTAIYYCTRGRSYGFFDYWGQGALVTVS
Sequence of CBTAU-7.1 (antibody) (VL): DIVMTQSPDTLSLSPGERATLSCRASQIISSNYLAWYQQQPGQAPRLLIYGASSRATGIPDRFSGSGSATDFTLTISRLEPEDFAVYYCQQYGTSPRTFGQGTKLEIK
Sequence of tau 194-212 (human) (peptide, as listed by the source): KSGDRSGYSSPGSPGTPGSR

- OD450 (tau 194-212 (human)): < 0.3 od
- OD450 [1]: > 1.5 od
- EC50 (read off the curve) [2]: 0.1 µg/mL
Substance: AT8 monoclonal antibody (Thermo, MN1020)

- OD450 (ptau 188-205 (human)): < 0.3 od
- OD450 (ptau 188-206 (human)): < 0.3 od
- OD450 (ptau 189-206 (human)): < 0.3 od
- OD450 (ptau 189-209 (human)): < 0.3 od
- OD450 (ptau 192-209 (human)): < 0.3 od
- OD450 (ptau 192-215 (human)): < 0.3 od
- OD450 (ptau 192-217 (human)): < 0.3 od
- OD450 (tau 186-253 (human)): < 0.3 od
- OD450 (tau 190-209 (human)): < 0.3 od
- OD450 (tau 194-212 (human)): < 0.3 od
- OD450 [1]: 1 to 1.5 od
- OD450 [3]: 0.5 to 1 od
- OD450 (ptau 188-209 (human)): > 1.5 od
- OD450 (ptau 188-212 (human)): 0.5 to 1 od
- OD450 (ptau 189-212 (human)): 1 to 1.5 od
- OD450 (ptau 192-212 (human)): 1 to 1.5 od
- OD450 [4]: 1 to 1.5 od
- OD450 [5]: 1 to 1.5 od
- OD450 [6]: 1 to 1.5 od
- OD450 [7]: 1 to 1.5 od
- OD450 [8]: > 1.5 od
- OD450 [9]: > 1.5 od
- OD450 [10]: > 1.5 od
- OD450 [11]: > 1.5 od
- OD450 [12]: > 1.5 od
- OD450 [13]: > 1.5 od
- OD450 [14]: > 1.5 od
- OD450 [15]: > 1.5 od
- OD450 [16]: > 1.5 od
- OD450 [17]: 1 to 1.5 od
- OD450 [18]: 1 to 1.5 od
- OD450 [19]: > 1.5 od
- OD450 [20]: 1 to 1.5 od
- OD450 [21]: > 1.5 od
- OD450 [22]: 0.5 to 1 od
- OD450 [23]: 0.5 to 1 od
- OD450 [24]: 0.5 to 1 od
- OD450 [25]: > 1.5 od
- OD450 [26]: > 1.5 od
- OD450 [27]: > 1.5 od
- OD450 [28]: > 1.5 od
- OD450 [29]: > 1.5 od
- OD450 [30]: > 1.5 od
- OD450 [31]: > 1.5 od
Substance: CBTAU-7.1 (antibody)
